Measurements: patent US20260184748A1, “COMPOSITIONS COMPRISING OCTADECANEUROPEPTIDES (ODN) AND SYNTHETIC DERIVATIVES THEREOF AND METHODS OF USE FOR MODULATION OF FOOD INTAKE, OBESITY, BODY WEIGHT, NAUSEA, AND EMESIS” (The Trustees of the University of Pennsylvania, priority 2022, published 2026)
Blank lines part the entries; values can stand above or below the binder they belong to. Where no end group is shown, it is not given here.

Legend:
Assay in all cases: cell-based or functional assay
CRHR1 = CRHR1 (UniProt P34998)
Sequence of CRHR1 (P34998 24-415 limits assumed): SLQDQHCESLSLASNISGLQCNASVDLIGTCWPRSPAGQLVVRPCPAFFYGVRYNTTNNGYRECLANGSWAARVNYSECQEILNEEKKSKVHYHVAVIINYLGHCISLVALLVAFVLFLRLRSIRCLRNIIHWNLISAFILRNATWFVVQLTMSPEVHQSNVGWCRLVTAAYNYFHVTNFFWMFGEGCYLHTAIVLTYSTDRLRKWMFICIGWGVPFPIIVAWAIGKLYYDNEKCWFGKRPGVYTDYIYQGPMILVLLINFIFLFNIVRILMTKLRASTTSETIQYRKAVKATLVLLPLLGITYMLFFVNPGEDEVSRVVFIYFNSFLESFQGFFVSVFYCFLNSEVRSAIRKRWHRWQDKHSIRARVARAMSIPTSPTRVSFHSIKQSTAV

CRHR2 = molecular target: T1, CRHR2 (UniProt Q13324)
T1 sequence (looked up): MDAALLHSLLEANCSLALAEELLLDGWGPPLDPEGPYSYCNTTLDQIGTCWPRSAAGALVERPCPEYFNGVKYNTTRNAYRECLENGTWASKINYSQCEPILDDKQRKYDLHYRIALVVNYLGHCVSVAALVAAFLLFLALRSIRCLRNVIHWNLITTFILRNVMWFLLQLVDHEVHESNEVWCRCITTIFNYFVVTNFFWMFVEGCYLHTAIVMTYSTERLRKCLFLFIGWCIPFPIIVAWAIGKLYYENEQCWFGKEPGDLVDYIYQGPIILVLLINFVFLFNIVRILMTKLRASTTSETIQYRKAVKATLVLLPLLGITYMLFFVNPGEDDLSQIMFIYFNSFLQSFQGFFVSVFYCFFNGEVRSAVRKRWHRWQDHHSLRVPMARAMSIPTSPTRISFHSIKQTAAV

GPR103 = GPR103 (UniProt Q96P65)
Sequence of GPR103 (Q96P65 whole entry): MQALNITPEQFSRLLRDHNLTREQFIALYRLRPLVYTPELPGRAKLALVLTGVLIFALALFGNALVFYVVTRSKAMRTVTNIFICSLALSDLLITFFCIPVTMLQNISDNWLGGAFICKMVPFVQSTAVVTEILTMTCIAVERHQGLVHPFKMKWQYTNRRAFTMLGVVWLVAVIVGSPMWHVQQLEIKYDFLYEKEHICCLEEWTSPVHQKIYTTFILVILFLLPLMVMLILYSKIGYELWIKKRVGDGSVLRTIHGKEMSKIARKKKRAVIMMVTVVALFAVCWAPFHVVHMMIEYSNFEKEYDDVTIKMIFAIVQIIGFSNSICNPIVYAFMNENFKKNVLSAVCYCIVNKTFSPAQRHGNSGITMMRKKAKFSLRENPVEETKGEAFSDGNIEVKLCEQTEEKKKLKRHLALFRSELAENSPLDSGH

CCR4 = molecular target: T2, CCR4 (UniProt P51679)
T2 sequence (looked up): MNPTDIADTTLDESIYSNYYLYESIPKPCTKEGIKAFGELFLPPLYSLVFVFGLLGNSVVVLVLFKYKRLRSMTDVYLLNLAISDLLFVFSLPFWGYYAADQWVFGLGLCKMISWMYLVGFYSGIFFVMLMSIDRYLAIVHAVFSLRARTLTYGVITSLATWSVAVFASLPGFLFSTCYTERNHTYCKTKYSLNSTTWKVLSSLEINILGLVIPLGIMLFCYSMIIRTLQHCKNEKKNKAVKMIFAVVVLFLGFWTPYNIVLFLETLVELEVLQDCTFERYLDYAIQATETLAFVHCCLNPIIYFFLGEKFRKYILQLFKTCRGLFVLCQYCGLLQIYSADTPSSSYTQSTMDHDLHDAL

NPBWR1 = molecular target: T3, NPBWR1 (UniProt P48145)
T3 sequence (looked up): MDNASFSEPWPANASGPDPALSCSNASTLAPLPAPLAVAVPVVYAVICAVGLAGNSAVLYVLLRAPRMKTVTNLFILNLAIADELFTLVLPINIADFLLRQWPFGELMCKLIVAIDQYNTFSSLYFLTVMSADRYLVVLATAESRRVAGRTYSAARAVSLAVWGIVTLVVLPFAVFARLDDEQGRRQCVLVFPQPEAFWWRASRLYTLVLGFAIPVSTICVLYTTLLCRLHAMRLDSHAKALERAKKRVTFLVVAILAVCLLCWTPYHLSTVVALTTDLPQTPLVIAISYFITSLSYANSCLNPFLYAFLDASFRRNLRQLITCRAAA

NPBWR2 = NPBWR2 (UniProt P48146)
Sequence of NPBWR2 (P48146 whole entry): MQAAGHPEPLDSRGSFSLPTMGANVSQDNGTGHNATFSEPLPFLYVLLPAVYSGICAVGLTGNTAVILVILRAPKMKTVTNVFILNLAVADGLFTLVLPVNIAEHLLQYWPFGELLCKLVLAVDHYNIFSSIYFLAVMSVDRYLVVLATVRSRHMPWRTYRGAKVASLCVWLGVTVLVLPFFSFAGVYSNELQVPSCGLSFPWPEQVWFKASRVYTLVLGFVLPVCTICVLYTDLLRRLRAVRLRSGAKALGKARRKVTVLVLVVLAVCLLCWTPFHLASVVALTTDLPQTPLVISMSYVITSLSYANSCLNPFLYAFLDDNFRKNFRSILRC

CCR8 = CCR8 (UniProt P51685)
NPSR1B = molecular target: T4, NPSR1B (UniProt Q6W5P4)
T4 sequence (looked up): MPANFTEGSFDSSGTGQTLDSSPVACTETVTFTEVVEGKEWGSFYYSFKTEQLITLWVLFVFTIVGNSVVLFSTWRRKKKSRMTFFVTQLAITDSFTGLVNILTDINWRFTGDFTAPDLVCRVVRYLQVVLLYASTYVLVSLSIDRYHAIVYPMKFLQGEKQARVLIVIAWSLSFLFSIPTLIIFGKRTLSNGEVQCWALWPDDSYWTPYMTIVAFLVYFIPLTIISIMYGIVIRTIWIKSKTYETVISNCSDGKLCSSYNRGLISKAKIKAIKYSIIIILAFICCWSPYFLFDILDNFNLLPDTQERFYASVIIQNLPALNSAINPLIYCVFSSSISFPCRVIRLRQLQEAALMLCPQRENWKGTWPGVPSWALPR

MCHR2 = MCHR2 (UniProt Q969V1)
Sequence of MCHR2 (Q969V1 whole entry): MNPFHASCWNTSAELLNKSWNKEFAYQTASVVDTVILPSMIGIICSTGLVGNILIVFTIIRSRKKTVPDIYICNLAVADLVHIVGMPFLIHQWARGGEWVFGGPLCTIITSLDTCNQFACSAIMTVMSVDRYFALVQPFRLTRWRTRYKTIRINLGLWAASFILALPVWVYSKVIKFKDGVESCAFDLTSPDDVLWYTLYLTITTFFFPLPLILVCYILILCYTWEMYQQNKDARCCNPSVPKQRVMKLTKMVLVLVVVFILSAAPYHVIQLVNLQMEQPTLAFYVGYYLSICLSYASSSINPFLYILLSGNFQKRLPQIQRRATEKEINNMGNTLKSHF

MCHR1 = MCHR1 (UniProt Q99705)
Sequence of MCHR1 (Q99705 whole entry): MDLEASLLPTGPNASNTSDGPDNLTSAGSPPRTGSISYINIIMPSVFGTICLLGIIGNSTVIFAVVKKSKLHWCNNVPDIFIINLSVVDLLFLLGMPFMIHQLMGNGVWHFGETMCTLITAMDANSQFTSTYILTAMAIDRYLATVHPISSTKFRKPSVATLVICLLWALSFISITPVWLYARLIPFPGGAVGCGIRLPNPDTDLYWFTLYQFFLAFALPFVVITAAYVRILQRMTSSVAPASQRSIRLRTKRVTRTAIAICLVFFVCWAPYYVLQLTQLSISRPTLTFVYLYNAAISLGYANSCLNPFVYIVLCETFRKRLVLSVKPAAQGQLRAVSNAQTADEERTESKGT

F2R, P25116 = molecular target: F2R, P25116
Sequence of F2R, P25116 (P25116 22-425): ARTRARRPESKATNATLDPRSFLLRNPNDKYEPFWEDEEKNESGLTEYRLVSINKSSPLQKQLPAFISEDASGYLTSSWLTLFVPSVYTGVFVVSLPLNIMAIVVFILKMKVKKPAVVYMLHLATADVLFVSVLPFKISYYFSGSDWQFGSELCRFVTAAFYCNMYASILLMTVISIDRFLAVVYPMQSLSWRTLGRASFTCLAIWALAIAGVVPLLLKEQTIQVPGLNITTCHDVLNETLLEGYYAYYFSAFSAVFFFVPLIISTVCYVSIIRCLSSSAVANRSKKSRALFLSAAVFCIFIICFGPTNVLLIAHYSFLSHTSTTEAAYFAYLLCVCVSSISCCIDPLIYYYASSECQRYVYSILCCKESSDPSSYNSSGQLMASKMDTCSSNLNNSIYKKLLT

DRD2L, P14416 = molecular target: DRD2L, P14416
CXCR3 = CXCR3 (UniProt P49682)
Sequence of CXCR3 (P49682 whole entry): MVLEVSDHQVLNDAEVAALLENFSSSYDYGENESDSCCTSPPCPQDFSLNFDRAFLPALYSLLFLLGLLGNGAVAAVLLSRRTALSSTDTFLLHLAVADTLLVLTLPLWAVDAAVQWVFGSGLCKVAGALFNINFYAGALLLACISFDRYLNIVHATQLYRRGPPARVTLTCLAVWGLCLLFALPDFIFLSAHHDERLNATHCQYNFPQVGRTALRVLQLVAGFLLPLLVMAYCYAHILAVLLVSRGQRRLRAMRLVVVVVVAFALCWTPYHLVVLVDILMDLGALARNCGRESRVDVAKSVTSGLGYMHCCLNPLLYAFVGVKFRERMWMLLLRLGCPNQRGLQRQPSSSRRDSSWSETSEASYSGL

CXCR6 = CXCR6 (UniProt O00574)
Sequence of CXCR6 (O00574 whole entry): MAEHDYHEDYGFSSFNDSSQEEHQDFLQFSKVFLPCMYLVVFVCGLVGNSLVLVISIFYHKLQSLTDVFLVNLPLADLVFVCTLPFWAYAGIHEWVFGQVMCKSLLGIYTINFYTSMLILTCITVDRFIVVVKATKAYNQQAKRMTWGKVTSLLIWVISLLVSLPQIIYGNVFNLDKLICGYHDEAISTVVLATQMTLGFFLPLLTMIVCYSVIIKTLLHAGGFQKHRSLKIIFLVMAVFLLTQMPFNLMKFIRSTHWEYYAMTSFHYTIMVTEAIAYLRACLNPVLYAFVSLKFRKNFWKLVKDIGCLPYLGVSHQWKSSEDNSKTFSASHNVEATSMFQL

NMU1R = NMU1R (UniProt Q9HB89)
Sequence of NMU1R (Q9HB89 whole entry): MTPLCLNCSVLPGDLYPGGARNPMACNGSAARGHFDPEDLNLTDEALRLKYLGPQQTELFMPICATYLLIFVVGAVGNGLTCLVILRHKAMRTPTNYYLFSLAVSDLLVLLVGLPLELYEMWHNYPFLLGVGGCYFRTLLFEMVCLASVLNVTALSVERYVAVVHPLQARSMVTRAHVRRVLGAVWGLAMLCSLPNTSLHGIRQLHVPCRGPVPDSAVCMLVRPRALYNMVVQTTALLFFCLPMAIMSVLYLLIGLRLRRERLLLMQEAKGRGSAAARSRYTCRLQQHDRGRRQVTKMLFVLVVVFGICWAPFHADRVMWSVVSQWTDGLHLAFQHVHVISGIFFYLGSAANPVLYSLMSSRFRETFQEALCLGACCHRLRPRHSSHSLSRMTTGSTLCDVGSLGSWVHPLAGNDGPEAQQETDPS

PPYR1 = PPYR1 (UniProt P50391)
Sequence of PPYR1 (P50391 whole entry): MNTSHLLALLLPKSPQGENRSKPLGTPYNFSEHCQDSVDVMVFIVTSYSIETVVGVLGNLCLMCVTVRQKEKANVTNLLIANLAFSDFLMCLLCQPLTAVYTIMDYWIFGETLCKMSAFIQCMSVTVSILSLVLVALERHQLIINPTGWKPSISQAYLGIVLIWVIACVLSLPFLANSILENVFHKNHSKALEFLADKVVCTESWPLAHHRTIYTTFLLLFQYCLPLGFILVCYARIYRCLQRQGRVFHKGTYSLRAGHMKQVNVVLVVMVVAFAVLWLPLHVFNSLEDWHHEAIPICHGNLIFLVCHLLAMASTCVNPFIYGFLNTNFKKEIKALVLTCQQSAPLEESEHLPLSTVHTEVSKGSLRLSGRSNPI

CCR10 = molecular target: T5, CCR10 (UniProt P46092)
T5 sequence (looked up): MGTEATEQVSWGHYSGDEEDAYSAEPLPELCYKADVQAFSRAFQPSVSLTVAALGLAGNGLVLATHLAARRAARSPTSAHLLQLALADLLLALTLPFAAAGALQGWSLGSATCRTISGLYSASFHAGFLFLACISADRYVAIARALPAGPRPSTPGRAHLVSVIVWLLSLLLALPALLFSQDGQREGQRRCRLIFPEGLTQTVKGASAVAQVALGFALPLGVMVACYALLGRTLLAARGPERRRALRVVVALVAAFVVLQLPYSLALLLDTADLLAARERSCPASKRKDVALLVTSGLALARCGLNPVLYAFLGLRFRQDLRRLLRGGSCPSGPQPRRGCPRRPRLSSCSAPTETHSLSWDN

UTR2 = molecular target: T6, UTR2 (UniProt Q9UKP6)
T6 sequence (looked up): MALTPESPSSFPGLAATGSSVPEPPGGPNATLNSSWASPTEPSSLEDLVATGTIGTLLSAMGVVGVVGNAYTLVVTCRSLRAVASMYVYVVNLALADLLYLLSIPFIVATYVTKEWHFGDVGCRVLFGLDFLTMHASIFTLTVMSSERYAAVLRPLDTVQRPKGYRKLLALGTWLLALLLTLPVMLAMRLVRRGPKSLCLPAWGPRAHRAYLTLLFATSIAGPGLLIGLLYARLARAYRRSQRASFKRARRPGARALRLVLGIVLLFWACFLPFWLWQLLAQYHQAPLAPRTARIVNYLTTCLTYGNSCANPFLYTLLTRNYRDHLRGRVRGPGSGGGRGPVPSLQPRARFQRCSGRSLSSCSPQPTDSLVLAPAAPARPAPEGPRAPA

PROKR2 = PROKR2 (UniProt Q8NFJ6)
Sequence of PROKR2 (Q8NFJ6 whole entry): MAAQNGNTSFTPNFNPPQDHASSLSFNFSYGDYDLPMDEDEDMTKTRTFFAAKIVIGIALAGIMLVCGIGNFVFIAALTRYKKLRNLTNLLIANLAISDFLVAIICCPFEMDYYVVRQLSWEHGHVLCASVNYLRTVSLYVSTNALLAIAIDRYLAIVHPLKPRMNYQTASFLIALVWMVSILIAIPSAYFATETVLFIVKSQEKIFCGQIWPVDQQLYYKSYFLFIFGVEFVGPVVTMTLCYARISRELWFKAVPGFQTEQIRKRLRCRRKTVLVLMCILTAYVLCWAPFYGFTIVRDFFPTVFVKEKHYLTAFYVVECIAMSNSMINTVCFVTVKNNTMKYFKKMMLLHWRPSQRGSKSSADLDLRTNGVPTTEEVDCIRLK

PROKR1 = PROKR1 (UniProt Q8TCW9)
Sequence of PROKR1 (Q8TCW9 whole entry): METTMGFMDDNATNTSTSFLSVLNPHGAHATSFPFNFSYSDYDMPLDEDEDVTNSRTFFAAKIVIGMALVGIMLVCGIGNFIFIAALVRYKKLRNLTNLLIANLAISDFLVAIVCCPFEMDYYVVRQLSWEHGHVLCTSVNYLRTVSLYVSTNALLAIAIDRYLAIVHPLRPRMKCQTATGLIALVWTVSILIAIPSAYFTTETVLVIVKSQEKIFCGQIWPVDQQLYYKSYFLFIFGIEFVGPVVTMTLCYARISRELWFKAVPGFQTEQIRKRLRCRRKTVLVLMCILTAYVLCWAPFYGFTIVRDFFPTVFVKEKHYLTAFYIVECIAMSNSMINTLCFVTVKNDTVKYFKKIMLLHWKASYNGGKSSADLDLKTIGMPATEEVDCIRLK

CXCR5 = CXCR5 (UniProt P32302)
Sequence of CXCR5 (P32302 whole entry): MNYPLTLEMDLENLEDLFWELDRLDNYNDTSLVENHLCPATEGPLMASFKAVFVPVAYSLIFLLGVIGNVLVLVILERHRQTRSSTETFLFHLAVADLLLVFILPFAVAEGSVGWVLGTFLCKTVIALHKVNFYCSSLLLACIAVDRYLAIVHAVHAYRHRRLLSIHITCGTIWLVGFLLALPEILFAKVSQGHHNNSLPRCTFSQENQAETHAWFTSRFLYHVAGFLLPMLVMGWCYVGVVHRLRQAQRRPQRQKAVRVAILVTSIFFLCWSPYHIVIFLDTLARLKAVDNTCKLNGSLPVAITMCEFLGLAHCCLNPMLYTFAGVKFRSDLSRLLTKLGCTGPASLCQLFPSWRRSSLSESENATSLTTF

EC50 (RC50), arrestin, agonist mode (CRHR1): 3.28 nM
EC80, arrestin, agonist mode (CRHR1): 10.3 nM
EC50 (RC50), arrestin, agonist mode (CRHR2): 5.99 nM
EC80, arrestin, agonist mode (CRHR2): 24.5 nM
Binder: QGPPISIDLSLELLRKMIEIEKQEKEKQQAANNRLLLDTI (peptide, UniProt P01144 1-40, looked up) [Sauvagine]

EC50 (RC50), arrestin, agonist mode (GPR103): 10 nM
EC80, arrestin, agonist mode (GPR103): 27.1 nM
Binder: TSGPLGNLAEELNGYSRKKGGFSFRF (peptide, UniProt P83859 108-133, looked up) [QRFP-26]

EC50 (RC50), arrestin, agonist mode (CCR4): 3.44 nM
EC80, arrestin, agonist mode (CCR4): 19.7 nM
B1: CCL22 (ligand, UniProt O00626 25-93, looked up)
chain: GPYGANMEDSVCCRDYVRYRLPLRVVKHFYWTSDSCPRPGVVLLTFRDKEICADPRVPWVKMILNKLSQ

EC50 (RC50), arrestin, agonist mode (NPBWR1): 2.17 nM
EC80, arrestin, agonist mode (NPBWR1): 8.01 nM
EC50 (RC50), arrestin, agonist mode (NPBWR2): 3.62 nM
EC80, arrestin, agonist mode (NPBWR2): 12.2 nM
Binder: WYKHVASPRYHTVGRAAGLLMGL (peptide, UniProt Q8N729 33-55, looked up) [Neuropeptide W23]

EC50 (RC50), arrestin, agonist mode (CCR8): 45.8 nM
EC80, arrestin, agonist mode (CCR8): 159 nM
B2: CCL1 (ligand, UniProt P22362 24-96, looked up)
chain: KSMQVPFSRCCFSFAEQEIPLRAILCYRNTSSICSNEGLIFKLKRGKEACALDTVGWVQRHRKMLRHCPSKRK

EC50 (RC50), arrestin, agonist mode (NPSR1B): 23.6 nM
EC80, arrestin, agonist mode (NPSR1B): 45.4 nM
Binder: SFRNGVGTGMKKTSFQRAKS (peptide, UniProt P0C0P6 70-89, looked up) [Neuropeptide S]

EC50 (RC50), arrestin, agonist mode (MCHR2): 5.51 nM
EC80, arrestin, agonist mode (MCHR2): 20.2 nM
EC50 (RC50), arrestin, agonist mode (MCHR1): 167 nM
EC80, arrestin, agonist mode (MCHR1): 444 nM
Binder: DFDMLRCMLGRVYRPCWQV (peptide, UniProt P20382 147-165, looked up) [MCH]

% Activity, arrestin, antagonist mode, 2.5 uM (F2R, P25116): -17%
% Activity, arrestin, antagonist mode, 2.5 uM (DRD2L, P14416): -16.8%
Binder: QATVGDVNTDRPGLLDLK (also: synthesised on Rink amide resin, C-terminal amide not given here outright) [octadecaneuropeptide (ODN)]

EC50 (RC50), arrestin, agonist mode (CXCR3): 12 nM
EC80, arrestin, agonist mode (CXCR3): 17.9 nM
B3: CXCL11 (ligand, UniProt O14625 22-94, looked up)
chain: FPMFKRGRCLCIGPGVKAVKVADIEKASIMYPSNNCDKIEVIITLKENKGQRCLNPKSKQARLIIKKVERKNF

EC50 (RC50), arrestin, agonist mode (CXCR6): 6.81 nM
EC80, arrestin, agonist mode (CXCR6): 21 nM
B4: CXCL16 (ligand, UniProt Q9H2A7 30-118, looked up)
chain: NEGSVTGSCYCGKRISSDSPPSVQFMNRLRKHLRAYHRCLYYTRFQLLSWSVCGGNKDPWVQELMSCLDLKECGHAYSGIVAHQKHLLP

EC50 (RC50), arrestin, agonist mode (NMU1R): 1.43 nM
EC80, arrestin, agonist mode (NMU1R): 3.68 nM
Binder: FRVDEEFQSPFASQSRGYFLFRPRN (peptide, UniProt P48645 142-166, looked up) [Neuromedin U-25]

EC50 (RC50), arrestin, agonist mode (PPYR1): 1.5 nM
EC80, arrestin, agonist mode (PPYR1): 5 nM
Binder: APLEPVYPGDNATPEQMAQYAADLRRYINMLTRPRY (peptide, UniProt P01298 30-65, looked up) [Pancreatic Polypeptide]

EC50 (RC50), arrestin, agonist mode (CCR10): 26.3 nM
EC80, arrestin, agonist mode (CCR10): 109 nM
B5: CCL27 (ligand, UniProt Q9Y4X3 25-112, looked up)
chain: FLLPPSTACCTQLYRKPLSDKLLRKVIQVELQEADGDCHLQAFVLHLAQRSICIHPQNPSLSQWFEHQERKLHGTLPKLNFGMLRKMG

EC50 (RC50), arrestin, agonist mode (UTR2): 1.19 nM
EC80, arrestin, agonist mode (UTR2): 4.22 nM
Binder: ETPDCFWKYCV (peptide, UniProt O95399 114-124, looked up) [Urotensin II]

EC50 (RC50), arrestin, agonist mode (PROKR2): 10.6 nM
EC80, arrestin, agonist mode (PROKR2): 30 nM
EC50 (RC50), arrestin, agonist mode (PROKR1): 17.7 nM
EC80, arrestin, agonist mode (PROKR1): 53.7 nM
B6: EG VEGF (ligand, UniProt P58294 20-105, looked up)
chain: AVITGACERDVQCGAGTCCAISLWLRGLRMCTPLGREGEECHPGSHKVPFFRKRKHHTCPCLPNLLCSRFPDGRYRCSMDLKNINF

EC50 (RC50), arrestin, agonist mode (F2R, P25116): 14500 nM
EC80, arrestin, agonist mode (F2R, P25116): 28700 nM
Binder: TFLLR-NH2 [TFLLR-NH2]

EC50 (RC50), arrestin, agonist mode (CXCR5): 21 nM
EC80, arrestin, agonist mode (CXCR5): 61.2 nM
B7: CXCL13 (ligand, UniProt O43927 23-109, looked up)
chain: VLEVYYTSLRCRCVQESSVFIPRRFIDRIQILPRGNGCPRKEIIVWKKNKSIVCVDPQAEWIQRMMEVLRKRSSSTLPVPVFKRKIP
